Measured values published in article doi:10.1101/2025.11.27.690698 (bioRxiv, 2025).
Residue numbers refer to the chain shown, from its start. Numbers in names are those of the source.

B1: human NLRP10 (aa 4-655) (natural protein)
chain: AKARKPREALLWALSDLEENDFKKLKFYLRDMTLSEGQPPLARGELEGLIPVDLAELLISKYGEKEAVKVVLKGLKVMNLLELVDQLSHICLHDYREVYREHVRCLEEWQEAGVNGRYNQVLLVAKPSSESPESLACPFPEQELESVTVEALFDSGEKPSLAPSLVVLQGSAGTGKTTLARKMVLDWATGTLYPGRFDYVFYVSCKEVVLLLESKLEQLLFWCCGDNQAPVTEILRQPERLLFILDGFDELQRPFEEKLKKRGLSPKESLLHLLIRRHTLPTCSLLITTRPLALRNLEPLLKQARHVHILGFSEEERARYFSSYFTDEKQADRAFDIVQKNDILYKACQVPGICWVVCSWLQGQMERGKVVLETPRNSTDIFMAYVSTFLPPDDDGGCSELSRHRVLRSLCSLAAEGIQHQRFLFEEAELRKHNLDGPRLAAFLSSNDYQLGLAIKKFYSFRHISFQDFFHAMSYLVKEDQSRLGKESRREVQRLLEVKEQEGNDEMTLTMQFLLDISKKDSFSNLELKFCFRISPCLAQDLKHFKEQMESMKHNRTWDLEFSLYEAKIKNLVKGIQMNNVSFKIKHSNEKKSQSQNLFSVKSSLSHGPKEEQKCPSVHGQKEGKDNIAGTQKEASTGKGRGTEETPKNTYI
B2: Walker A mutant human NLRP10 (aa 4-655 K179A) (natural protein)
chain: B1 chain with K176A

Target: the molecule itself
Experiment: SEC

| Protein | binding result |
| --- | --- |
| B1 | binds |
| B2 | binds |
